± gives the uncertainty stated by the source.
Assay: self-splicing fitness, log relative to wild type (ln ratio); higher = more splicing; Tetrahymena group I intron in knt gene, E. coli kanamycin selection, DiMSum; sequences stand for … in CUCUCU…GGAGGGAAAAGUUAUCAGGCAUGCACCUGGUAGCUAGUCUUUAAACCAAUAGAUUGCAUCGGUUUAAAAGGCAAGACCGUCAAAUUGCGGGAAAGGGGUCAACAGCCGUUCAGUACCAAGUCUCAGGGGAAACUUUGAGAUGGCCUUGCAAAGGGUAUGGUAAUAAGCUGACGGACAUGGUCCUAACCACGCAGCCAAGUCCUAAGUCAACAGAUCUUCUGUUGAUAUGGAUGCAGUUCACAGACUAAAUGUCGGUCGGGGAAGAUGUAUUCUUCUCAUAAGAUAUAGUCGGACCUCUCCUUAAUGGGAGCUAGCGGAUGAAGUGAUGCAACACUGGAGCCGCUGGGAACUAAUUUGUAUGCGAAAGUAUAUUGAUUAGUUUUGGAGUACUCGUGGUCG
Procedure, shortened: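 Library with all eight P1ex-region intron nucleotides randomised, intron inside the knt kanamycin-resistance gene on pET-22b(+), in E. coli BL21(DE3). Cells grew overnight at 37°C or 30°C on LB agar with or without 25 μg/mL kanamycin (plus 100 μg/mL carbenicillin, 50 μM IPTG, 0.2% rhamnose), in six replicate transformations. Pooled colonies were amplicon-sequenced on Illumina HiSeq 2500. DiMSum fitness is the error-weighted combination of wild-type-normalised replicate fold changes, kanamycin versus none.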

| Sequence | self-splicing fitness (ln) (30 °C) | self-splicing fitness (ln) (37 °C) |
| --- | --- | --- |
| UAUCAGCAAUAUUACGAUUG | -0.748 ± 0.087 | 0.588 ± 0.1 |
| UAUCAGCAAUAUUACGCAUG | -1.1 ± 0.082 | 0.181 ± 0.099 |
| UAUCAGCAAUAUUACGCCCG | -0.133 ± 0.098 | -0.202 ± 0.13 |
| UAUCAGCAAUAUUACGCCUU | -0.446 ± 0.24 | -0.723 ± 0.23 |
| UAUCAGCAAUAUUACGCUAU | -2.29 ± 0.11 | -1.74 ± 0.1 |
| UAUCAGCAAUAUUACGCUUA | -0.532 ± 0.13 | 0.504 ± 0.13 |
| UAUCAGCAAUAUUACGCUUC | -2.82 ± 0.23 | -2.09 ± 0.27 |
| UAUCAGCAAUAUUACGGAGA | -0.973 ± 0.085 | -0.0429 ± 0.1 |
| UAUCAGCAAUAUUACGGGUA | -1.2 ± 0.092 | -0.623 ± 0.1 |
| UAUCAGCAAUAUUACGGGUU | -1.83 ± 0.1 | -0.944 ± 0.11 |
| UAUCAGCAAUAUUACGGUGU | -1.35 ± 0.072 | -1.19 ± 0.098 |
| UAUCAGCAAUAUUACGUUGG | -2.48 ± 0.089 | -0.612 ± 0.1 |
| UAUGAGCAAUAUUACGAAAC | -2.34 ± 0.21 | – |
| UAUGAGCAAUAUUACGACUA | -0.118 ± 0.11 | 0.0355 ± 0.12 |
| UAUGAGCAAUAUUACGACUU | -2.66 ± 0.24 | – |
| UAUGAGCAAUAUUACGAGUC | – | -0.461 ± 0.46 |
| UAUGAGCAAUAUUACGCCUA | -1.59 ± 0.18 | -0.615 ± 0.21 |
| UAUGAGCAAUAUUACGCGUC | -2.05 ± 0.16 | -2.81 ± 0.37 |
| UAUGAGCAAUAUUACGCUCC | -1.47 ± 0.31 | – |
| UAUGAGCAAUAUUACGCUUU | -4.14 ± 0.33 | -2.65 ± 0.36 |
| UAUGAGCAAUAUUACGGAGC | -1.38 ± 0.36 | – |
| UAUGAGCAAUAUUACGGAGU | -4.87 ± 0.36 | -3.53 ± 0.37 |
| UAUGAGCAAUAUUACGGCCG | -1.33 ± 0.36 | -1.01 ± 0.35 |
| UAUGAGCAAUAUUACGGGCC | – | -3.14 ± 0.43 |
| UAUGAGCAAUAUUACGGGGG | -3.16 ± 0.26 | -2.31 ± 0.29 |

| Sequence | self-splicing fitness (ln) (30 °C) | self-splicing fitness (ln) (37 °C) |
| --- | --- | --- |
| UAUGAGCAAUAUUACGGGUU | -4.04 ± 0.3 | -2.41 ± 0.27 |
| UAUGAGCAAUAUUACGGUAA | -3.33 ± 0.35 | -2.78 ± 0.35 |
| UAUGAGCAAUAUUACGGUUG | -4.24 ± 0.43 | -2.38 ± 0.45 |
| UAUGAGCAAUAUUACGGUUU | -3.7 ± 0.2 | -2.43 ± 0.21 |
| UAUGAGCAAUAUUACGUCCC | -2.74 ± 0.49 | – |
| UAUGAGCAAUAUUACGUGGC | -3.07 ± 0.2 | -2.52 ± 0.46 |
| UAUUAGCAAUAUUACGAAAA | -1.68 ± 0.26 | -1.2 ± 0.26 |
| UAUUAGCAAUAUUACGAAAU | -2.46 ± 0.35 | -1.53 ± 0.43 |
| UAUUAGCAAUAUUACGACCA | -0.42 ± 0.18 | -0.894 ± 0.19 |
| UAUUAGCAAUAUUACGAGGC | – | -0.205 ± 0.23 |
| UAUUAGCAAUAUUACGAGGU | -2.64 ± 0.24 | -2.27 ± 0.35 |
| UAUUAGCAAUAUUACGAUAU | -3.81 ± 0.26 | -2.11 ± 0.2 |
| UAUUAGCAAUAUUACGCCAC | – | -0.751 ± 0.48 |
| UAUUAGCAAUAUUACGCGAU | – | -2.15 ± 0.38 |
| UAUUAGCAAUAUUACGCUCA | 0.0548 ± 0.15 | 0.336 ± 0.17 |
| UAUUAGCAAUAUUACGGGGG | -4.15 ± 0.46 | -2.75 ± 0.34 |
| UAUUAGCAAUAUUACGGUCU | -2.66 ± 0.23 | -1.57 ± 0.32 |
| UAUUAGCAAUAUUACGGUGC | -3.77 ± 0.3 | -1.84 ± 0.23 |
| UAUUAGCAAUAUUACGGUGU | -3.01 ± 0.25 | -2.7 ± 0.3 |
| UAUUAGCAAUAUUACGUCAA | -1.86 ± 0.21 | -1.34 ± 0.24 |
| UAUUAGCAAUAUUACGUCUA | -0.265 ± 0.091 | 0.324 ± 0.12 |
| UAUUAGCAAUAUUACGUUGA | -3.32 ± 0.29 | -2.17 ± 0.23 |
| UAUUAGCAAUAUUACGUUUG | -2.12 ± 0.12 | -0.749 ± 0.13 |
| UCAAAGCAAUAUUACGAAAG | -3.84 ± 0.31 | -1.43 ± 0.18 |
| UCAAAGCAAUAUUACGACAA | -1.96 ± 0.19 | -1.22 ± 0.14 |

| Sequence | self-splicing fitness (ln) (30 °C) | self-splicing fitness (ln) (37 °C) |
| --- | --- | --- |
| UCAAAGCAAUAUUACGACAG | -2.66 ± 0.14 | -1.25 ± 0.14 |
| UCAAAGCAAUAUUACGACAU | -3.633 ± 0.023 | -2.37 ± 0.036 |
| UCAAAGCAAUAUUACGACGC | -3.24 ± 0.16 | -2.09 ± 0.14 |
| UCAAAGCAAUAUUACGACUC | -2.99 ± 0.38 | -0.37 ± 0.23 |
| UCAAAGCAAUAUUACGAGAG | -3.08 ± 0.2 | -2.21 ± 0.21 |
| UCAAAGCAAUAUUACGAGAU | -4.03 ± 0.33 | -1.91 ± 0.2 |
| UCAAAGCAAUAUUACGCAAA | -2.5 ± 0.23 | -2.19 ± 0.31 |
| UCAAAGCAAUAUUACGCAAU | -5.01 ± 0.34 | -2.79 ± 0.21 |
| UCAAAGCAAUAUUACGCCUC | – | -1.91 ± 0.37 |
| UCAAAGCAAUAUUACGCGCC | -2.36 ± 0.24 | -1.24 ± 0.28 |
| UCAAAGCAAUAUUACGCUCA | -0.864 ± 0.15 | -0.428 ± 0.19 |
| UCAAAGCAAUAUUACGCUGG | -3.55 ± 0.37 | -2.28 ± 0.33 |
| UCAAAGCAAUAUUACGGAUA | -3.12 ± 0.18 | -1.94 ± 0.14 |
| UCAAAGCAAUAUUACGGCGC | -1.8 ± 0.1 | -1.41 ± 0.13 |
| UCAAAGCAAUAUUACGGGCU | -2.34 ± 0.11 | -2.55 ± 0.14 |
| UCAAAGCAAUAUUACGGGUU | -3.13 ± 0.15 | -2.59 ± 0.15 |
| UCAAAGCAAUAUUACGGUUA | -1.04 ± 0.092 | -0.132 ± 0.087 |
| UCAAAGCAAUAUUACGUAGU | -3.63 ± 0.21 | -1.69 ± 0.17 |
| UCAAAGCAAUAUUACGUCAC | -3.89 ± 0.36 | -3.01 ± 0.4 |
| UCAAAGCAAUAUUACGUCGG | -0.93 ± 0.056 | -0.055 ± 0.079 |
| UCAAAGCAAUAUUACGUCUU | -4.01 ± 0.18 | -3.03 ± 0.17 |
| UCAAAGCAAUAUUACGUGAG | -0.64 ± 0.046 | -0.25 ± 0.071 |
| UCAAAGCAAUAUUACGUGCA | -0.542 ± 0.048 | 0.0292 ± 0.065 |
| UCAAAGCAAUAUUACGUUCU | -3.76 ± 0.26 | -2.87 ± 0.22 |
| UCACAGCAAUAUUACGAAUA | -2.68 ± 0.14 | -1.44 ± 0.11 |

| Sequence | self-splicing fitness (ln) (30 °C) | self-splicing fitness (ln) (37 °C) |
| --- | --- | --- |
| UCACAGCAAUAUUACGACCG | -0.795 ± 0.11 | 0.149 ± 0.12 |
| UCACAGCAAUAUUACGACGU | -3.44 ± 0.16 | -3.53 ± 0.26 |
| UCACAGCAAUAUUACGAGGU | -4.27 ± 0.36 | -2.54 ± 0.22 |
| UCACAGCAAUAUUACGCAAC | – | -3.26 ± 0.39 |
| UCACAGCAAUAUUACGCACC | -2.35 ± 0.3 | – |
| UCACAGCAAUAUUACGCACU | -2.56 ± 0.17 | -2.8 ± 0.24 |
| UCACAGCAAUAUUACGCAGC | -3.29 ± 0.2 | -2.62 ± 0.25 |
| UCACAGCAAUAUUACGGAAG | -3.85 ± 0.23 | -2.3 ± 0.17 |
| UCACAGCAAUAUUACGGACC | – | -2.14 ± 0.29 |
| UCACAGCAAUAUUACGGCAA | -1.38 ± 0.1 | -1.42 ± 0.097 |
| UCACAGCAAUAUUACGGCGG | -0.848 ± 0.056 | 0.0491 ± 0.078 |
| UCACAGCAAUAUUACGGGGC | -4.05 ± 0.21 | -2.4 ± 0.15 |
| UCACAGCAAUAUUACGGUAU | -3.42 ± 0.19 | -3.05 ± 0.18 |
| UCACAGCAAUAUUACGGUGC | -3.04 ± 0.18 | -1.47 ± 0.14 |
| UCACAGCAAUAUUACGUAAC | -3.69 ± 0.12 | -2.79 ± 0.14 |
| UCACAGCAAUAUUACGUCGU | -3.62 ± 0.19 | -1.49 ± 0.22 |
| UCACAGCAAUAUUACGUCUG | -3.02 ± 0.13 | -0.735 ± 0.11 |
| UCACAGCAAUAUUACGUGGA | -2.51 ± 0.095 | -2.36 ± 0.1 |
| UCACAGCAAUAUUACGUGGC | -3.08 ± 0.18 | -2.83 ± 0.26 |
| UCACAGCAAUAUUACGUUUU | -3.72 ± 0.14 | -3.09 ± 0.15 |
| UCAGAGCAAUAUUACGAAUA | -2.84 ± 0.32 | -2.14 ± 0.38 |
| UCAGAGCAAUAUUACGAAUG | -1.78 ± 0.24 | -2.76 ± 0.38 |
| UCAGAGCAAUAUUACGAGCC | – | -2.18 ± 0.4 |
| UCAGAGCAAUAUUACGAGGG | -2.95 ± 0.16 | -1.94 ± 0.16 |
| UCAGAGCAAUAUUACGAGGU | -3 ± 0.29 | -2.5 ± 0.32 |

— the supplement of paper PMC7877785
